Experiments:
[1] = biological target: HA-tagged AKT deletion construct lacking the PH domain, P31749
[2] = biological target: HA-tagged AKT Y176F mutant, P31749
[3] = biological target: HA-tagged AKT (wild type), P31749

B1: activated Ack1 (caAck, L487F mutant) (protein)
chain: MQPEEGTGWLLELLSEVQLQQYFLRLRDDLNVTRLSHFEYVKNEDLEKIGMGRPGQRRLWEAVKRRKALCKRKSWMSKVFSGKRLEAEFPPHHSQSTFRKTSPAPGGPAGEGPLQSLTCLIGEKDLRLLEKLGDGSFGVVRRGEWDAPSGKTVSVAVKCLKPDVLSQPEAMDDFIREVNAMHSLDHRNLIRLYGVVLTPPMKMVTELAPLGSLLDRLRKHQGHFLLGTLSRYAVQVAEGMGYLESKRFIHRDLAARNLLLATRDLVKIGDFGLMRALPQNDDHYVMQEHRKVPFAWCAPESLKTRTFSHASDTWMFGVTLWEMFTYGQEPWIGLNGSQILHKIDKEGERLPRPEDCPQDIYNVMVQCWAHKPEDRPTFVALRDFLLEAQPTDMRALQDFEEPDKLHIQMNDVITVIEGRAENYWWRGQNTRTLCVGPFPRNVVTSVAGLSAQDISQPLQNSFIHTGHGDSDPRHCWGFPDRIDELYFGNPMDPPDLLSVELSTSRPPQHLGGVKKPTYDPVSEDQDPLSSDFKRLGLRKPGLPRGLWLAKPSARVPGTKASRGSGAEVTLIDFGEEPVVPALRPCAPSLAQLAMDACSLLDETPPQSPTRALPRPLHPTPVVDWDARPLPPPPAYDDVAQDEDDFEICSINSTLVGAGVPAGPSQGQTNYAFVPEQARPPPPLEDNLFLPPQGGGKPPSSAQTAEIFQALQQECMRQLQAPAGSPAPSPSPGGDDKPQVPPRVPIPPRPTRPHVQLSPAPPGEEETSQWPGPASPPRVPPREPLSPQ
Tyr-phosphorylation of AKT deletion constructs (IP with HA antibodies, immunoblot with pTyr antibodies) [1]: AKT deletion construct lacking the PH domain (ΔPH-AKT) exhibited significant decrease in Tyr-phosphorylation

B2: endogenous Ack1 of mouse embryo fibroblasts (protein)
chain: MQPEEGTGWLLELLSEVQLQQYFLRLRDDLNITRLSHFEYVKNEDLEKIGMGRPGQRRLWEAVKRRKAMCKRKSWMSKVFSGKRLEAEFPSQHSQSTFRKPSPTPGSLPGEGTLQSLTCLIGEKDLRLLEKLGDGSFGVVRRGEWDAPAGKTVSVAVKCLKPDVLSQPEAMDDFIREVNAMHSLDHRNLIRLYGVVLTLPMKMVTELAPLGSLLDRLRKHQGHFLLGTLSRYAVQVAEGMAYLESKRFIHRDLAARNLLLATRDLVKIGDFGLMRALPQNDDHYVMQEHRKVPFAWCAPESLKTRTFSHASDTWMFGVTLWEMFTYGQEPWIGLNGSQILHKIDKEGERLPRPEDCPQDIYNVMVQCWAHKPEDRPTFVALRDFLLEAQPTDMRALQDFEEPDKLHIQMNDVITVIEGRAENYWWRGQNTRTLCVGPFPRNVVTSVAGLSAQDISQPLQNSFIHTGHGDSDPRHCWGFPDRIDELYLGNPMDPPDLLSVELSTSRPTQHLGRVKREPPPRPPQPAIFTQKTTYDPVSEDPDPLSSDFKRLGLRKPALPRGLWLAKPSARVPGTKADRSSGGEVTLIDFGEEPVVPTPRPCAPSLAQLAMDACSLLDKTPPQSPTRALPRPLHPTPVVDWDARPLPPPPAYDDVAQDEDDFEVCSINSTLVGAGLPAGPSQGETNYAFVPEQAQMPPALEDNLFLPPQGGGKPPSSVQTAEIFQALQQECMRQLQVPTGQLTPSPTPGGDDKPQVPPRVPIPPRPTRPRVELSPAPSGEEETSRWPGPASPPRVPPREPLSPQGSRTPSPLVPPGSSPLPHRLSSSPGKTMPTTQSFASDPKYATPQVIQAPGPRAGPCILPIVRDGRKVSSTHYYLLPERPPYLERYQRFLREAQSPEEPAALPVPPLLPPPSTPAPAAPTATVRPMPQAAPDPKANFSTNNSNPGARPPSLRAAARLPQRGCPGDGQEAARPADKVQMLQAMVHGVTTEECQAALQSHSWSVQRAAQYLKVEQLFGLGLRPRVECHKVLEMFDWNLEQAGCHLLGSCGPAHHKR
AKT Tyr/Ser-phosphorylations (IP and immunoblot) [2]: decreased AKT Tyr/Ser-phosphorylations

B3: purified tagged Ack1 expressed in HEK293T cells (protein)
chain: MQPEEGTGWLLELLSEVQLQQYFLRLRDDLNVTRLSHFEYVKNEDLEKIGMGRPGQRRLWEAVKRRKALCKRKSWMSKVFSGKRLEAEFPPHHSQSTFRKTSPAPGGPAGEGPLQSLTCLIGEKDLRLLEKLGDGSFGVVRRGEWDAPSGKTVSVAVKCLKPDVLSQPEAMDDFIREVNAMHSLDHRNLIRLYGVVLTPPMKMVTELAPLGSLLDRLRKHQGHFLLGTLSRYAVQVAEGMGYLESKRFIHRDLAARNLLLATRDLVKIGDFGLMRALPQNDDHYVMQEHRKVPFAWCAPESLKTRTFSHASDTWMFGVTLWEMFTYGQEPWIGLNGSQILHKIDKEGERLPRPEDCPQDIYNVMVQCWAHKPEDRPTFVALRDFLLEAQPTDMRALQDFEEPDKLHIQMNDVITVIEGRAENYWWRGQNTRTLCVGPFPRNVVTSVAGLSAQDISQPLQNSFIHTGHGDSDPRHCWGFPDRIDELYLGNPMDPPDLLSVELSTSRPPQHLGGVKKPTYDPVSEDQDPLSSDFKRLGLRKPGLPRGLWLAKPSARVPGTKASRGSGAEVTLIDFGEEPVVPALRPCAPSLAQLAMDACSLLDETPPQSPTRALPRPLHPTPVVDWDARPLPPPPAYDDVAQDEDDFEICSINSTLVGAGVPAGPSQGQTNYAFVPEQARPPPPLEDNLFLPPQGGGKPPSSAQTAEIFQALQQECMRQLQAPAGSPAPSPSPGGDDKPQVPPRVPIPPRPTRPHVQLSPAPPGEEETSQWPGPASPPRVPPREPLSPQGSRTPSPLVPPGSSPLPPRLSSSPGKTMPTTQSFASDPKYATPQVIQAPGPRAGPCILPIVRDGKKVSSTHYYLLPERPSYLERYQRFLREAQSPEEPTPLPVPLLLPPPSTPAPAAPTATVRPMPQAALDPKANFSTNNSNPGARPPPPRATARLPQRGCPGDGPEAGRPADKIQMAMVHGVTTEECQAALQCHGWSVQRAAQYLKVEQLFGLGLRPRGECHKVLEMFDWNLEQAGCHLLGSWGPAHHKR
AKT Tyr176-phosphorylation (in vitro phosphorylation of purified AKT by Ack1, immunoblot) [3]: purified Ack1 interacted directly with AKT resulting in AKT Tyr176-phosphorylation

— patent US20120053225
